Experimental data: US20230083243A1 (VEGA THERAPEUTICS, published 2023)

T1: Protein S-C4BP complex (human, UniProt P04003 49-597; P20851 18-252)
T1 construct: C4BP preparation from Complement Technologies that contains Protein S precomplexed to human C4BP; also called ProS-C4BP Complex; C4BP-Protein S complex
T1 sequence 1: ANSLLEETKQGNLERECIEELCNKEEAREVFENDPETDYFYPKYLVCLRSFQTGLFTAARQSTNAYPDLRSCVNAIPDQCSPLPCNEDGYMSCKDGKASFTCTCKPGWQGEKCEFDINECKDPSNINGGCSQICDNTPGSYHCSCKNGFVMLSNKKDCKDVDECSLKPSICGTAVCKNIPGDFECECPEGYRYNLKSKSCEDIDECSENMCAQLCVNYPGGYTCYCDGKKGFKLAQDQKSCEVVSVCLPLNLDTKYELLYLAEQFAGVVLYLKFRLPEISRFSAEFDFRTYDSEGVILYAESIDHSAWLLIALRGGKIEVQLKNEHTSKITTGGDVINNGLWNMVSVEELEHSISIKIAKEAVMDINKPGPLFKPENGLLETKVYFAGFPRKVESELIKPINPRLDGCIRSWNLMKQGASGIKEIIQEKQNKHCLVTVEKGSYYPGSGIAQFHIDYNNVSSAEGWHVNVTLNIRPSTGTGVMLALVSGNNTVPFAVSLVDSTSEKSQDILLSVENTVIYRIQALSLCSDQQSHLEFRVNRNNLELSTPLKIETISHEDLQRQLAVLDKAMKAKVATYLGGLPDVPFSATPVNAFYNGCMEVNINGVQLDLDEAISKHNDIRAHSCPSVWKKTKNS
T1 sequence 2: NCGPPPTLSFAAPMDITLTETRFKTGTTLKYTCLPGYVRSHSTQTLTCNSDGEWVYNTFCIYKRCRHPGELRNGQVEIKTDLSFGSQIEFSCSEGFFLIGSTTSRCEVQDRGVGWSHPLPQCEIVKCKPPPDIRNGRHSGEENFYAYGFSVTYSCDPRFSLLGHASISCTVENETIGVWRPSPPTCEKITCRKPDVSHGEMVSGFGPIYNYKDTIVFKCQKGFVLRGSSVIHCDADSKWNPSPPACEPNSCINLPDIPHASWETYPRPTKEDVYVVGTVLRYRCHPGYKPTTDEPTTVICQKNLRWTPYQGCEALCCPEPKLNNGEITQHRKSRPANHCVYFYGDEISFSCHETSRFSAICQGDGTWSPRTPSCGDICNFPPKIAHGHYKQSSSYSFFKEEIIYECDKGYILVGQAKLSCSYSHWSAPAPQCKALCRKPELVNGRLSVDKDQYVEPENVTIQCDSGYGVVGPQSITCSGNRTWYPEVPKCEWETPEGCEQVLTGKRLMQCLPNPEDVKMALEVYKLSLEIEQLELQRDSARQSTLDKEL
T1 sequence 3: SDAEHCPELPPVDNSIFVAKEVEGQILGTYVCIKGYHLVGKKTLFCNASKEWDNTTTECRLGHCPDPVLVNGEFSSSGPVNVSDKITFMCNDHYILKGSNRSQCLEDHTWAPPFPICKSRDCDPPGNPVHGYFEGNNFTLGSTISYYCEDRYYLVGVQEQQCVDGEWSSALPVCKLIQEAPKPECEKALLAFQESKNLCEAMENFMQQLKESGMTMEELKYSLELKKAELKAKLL

T2: human Protein S (human, UniProt P07225 42-676)
T2 construct: also called ProS; ProS1
T2 sequence: T1 sequence 1

B1: Antibody 25 (antibody, V domains shown)
VH: QVQLQESGPGLVKPSETLSLTCTVSGGSISGNYWSWIRQPPGKGLEWIGYIYYSGSTNYNPSLKSRVTISVDTSKNQFSLKLSSVTAADTAVYYCARDLDYFTWGAYSDWYFDLWGRGTLVTVSS
VL: DIQMTQSPSSLSASVGDRVTITCRASQSISTFLNWYQQKPGKAPKLLIYATSSLRSGVPSRFSGSGSGTDFTLTISSLQPEDFAIYYCQQSYSTPRTFGQGTQVEIK
notes: Same variable regions as Antibody 31
B2: Antibody 39 (antibody, V domains shown)
VH: EVQLVESGGGLVQPGGSLRLSCAASGFTFSSYSMNWVRQAPGKGLEWVAYISSSTRTIFYADSVKGRFTISRDNAKNSLYLQMNSLRDEDTAFYYCARERSAFDYWGQGTLVTVSS
VL: SYVLTQPPSVSVAPGQTARITCGGDNIGGKSVHWYQQKPGQAPVMVVYDDSDRPSGIPERFAGSNSGNTATLAISRVEAGDEADYYCQVWEITSDHPAFGGGTRLTVL
notes: Same variable regions as Antibody 40
B3: Antibody 11 (antibody, V domains shown)
VH: QVQLVQSGAEVKKPGASVKVSCKSSGHTFTGYYMHWVRQAPGQGLEWMGWINPNSGDTNYAQKFQGRVTMTRDTSISTAYMEMSRLRSDDTAVYYCARDSQILWFGELGYWGQGTLVTVSS
VL: QAVVTQESALTTSPGETVTLTCRSSTGAVTASNYANWVQEKPDHLFTGLIGSTNNRAPGVPARFSGSLIGDKAALTITGAQTEDEAIYFCALWYSDHFVFGGGTKLTVL
notes: Same variable regions as Antibody 23
B4: Antibody 41 (antibody, V domains shown)
VH: QVQLVQSGSEVKKPGASVKVSCKASGYTFTNYYIHWVRQAPGQGLEWMGIITPSGGTTSYAQKFQGRVTMTRDTSTNTVYMGLSSLRSEDTAMYYCARAGVQLDRRGWFDPWGQGTLVTVSS
VL: SYELTQPPSVSVSPGQTASITCSGDKLGDKYVFWYQQKPGQSPVLVIYQDSKRPSGIPERFSGSNSGNTATLTISGTQTMDEADYYCQAWDSSTVGFGGGTKLAVL
notes: Same variable regions as Antibody 42

Target: T1, Protein S-C4BP complex
Assay: BLI Octet; antibody on anti-human Fc probe
Procedure: The Octet assay was used to determine the capability of the Protein S antibodies provided herein to bind to Protein S either alone, or when complexed to C4BP.
Using the Octet System (Sartorius), the binding of each antibody to both Protein S and Protein S in complex with C4BP was determined. It had previously been determined that the C4BP preparation from Complement Technologies contains Protein S precomplexed to human C4BP. Therefore, this preparation represented the Protein S-C4BP complex and plasma purified Protein S from Haematologic Technologies was used as the source of free Protein S. The human Fc antibodies were immobilized onto anti-human Fc capture probes by placing the probes into 10 μg/ml antibody solution in 10 mg/ml bovine serum albumin, 20 mM Tris pH 7.0, 150 mM NaCl, and 4 mM calcium chloride. Then the bound antibodies were placed into solutions containing either 75 μg/ml Protein S or 100 μg/ml C4BP (C4BP-Protein S complex).

Binder	binding result
B1	no binding (tested: 100 µg/ml C4BP (C4BP-Protein S complex))
B2	no binding (tested: 100 µg/ml C4BP (C4BP-Protein S complex))
B3	no binding (tested: 100 µg/ml C4BP (C4BP-Protein S complex))
B4	no binding (tested: 100 µg/ml C4BP (C4BP-Protein S complex))

Target: T3, cynomolgus monkey Protein S (cynomolgus monkey)
T3 construct: also called cyno Protein S
Assay: BLI Octet; antibody on anti-human Fc probe; Protein S 7.81-500 nM; 4 mM CaCl2
Procedure: (§1) Binding characteristics of the Protein S antibodies were also further characterized using Octet. Using the Octet System (Sartorius), the binding of each antibody to both human and cynomolgus monkey (“cyno” in Table 10) Protein S was determined. The human Fc antibodies were immobilized onto anti-human Fc capture probes by placing the probes into 10 μg/ml antibody solution in 10 mg/ml bovine serum albumin, 20 mM Tris pH 7.0, 150 mM NaCl, and 4 mM calcium chloride. […] Next, the probes were placed into buffer and the dissociation rates were measured.

Kd [pM]	koff [s⁻¹]	kon [M⁻¹ s⁻¹]	Binder
< 1	< 1e-07	124000	B1
419	8.02e-05	191000	B2
< 1	< 1e-07	82100	B3
19500	0.00188	96400	B4

Target: T2, human Protein S
Assay: as above
Procedure: as §1

Kd [pM]	koff [s⁻¹]	kon [M⁻¹ s⁻¹]	Binder
< 1	< 1e-07	143000	B1
250	5.84e-05	234000	B2
399	3.4e-05	85200	B3
13800	0.0011	80000	B4

Target: T2, human Protein S
Assay: SPR Biacore X100; antibody captured by anti-human IgG (Fc); Protein S 2-128 nM; 5 mM CaCl2; 1:1 fit
Procedure: Binding characteristics of the Protein S antibodies were also determined. Binding interaction analysis was obtained by Surface Plasmon Resonance in a Biacore X100 instrument. The human anti-IgG (Fc) antibody was immobilized to the carboxymethylated dextran membrane on the sensor chip surface (CM5) via the free amine method for a contact time of 420 seconds. Human anti-IgG antibody at 25 μg/mL in 0.15 M NaCl was immobilized to 9,785 RU in 10 mM sodium acetate pH 5.0.
Dilution and running buffer were as follows: Hbs−EP+5 mM CaCl₂. Regeneration was obtained by 3 M MgCl₂. Binding constants (ka, kd, and KD) were determined using the Biacore X100 evaluation software, assuming a 1:1 interaction of Protein S and the tested monoclonal antibody under investigation.

Kd [pM]	koff [s⁻¹]	kon [M⁻¹ s⁻¹]	Binder
9600	0.00113	116000	B3
